Experiment [1] concerns the target otoferlin (mouse (endogenous in inner hair cells)). The experiment can be described thus: proximity ligation.
The target is the same in experiment [2]. The experiment can be described thus: proximity ligation. The source holds these as a separate data set.

Experimental findings from doi:10.1101/779520 are described below.

Where two headings read alike, the source gives them in different places.

otoferlin (mouse (endogenous in inner hair cells)), sequence (Q9ESF1 whole entry): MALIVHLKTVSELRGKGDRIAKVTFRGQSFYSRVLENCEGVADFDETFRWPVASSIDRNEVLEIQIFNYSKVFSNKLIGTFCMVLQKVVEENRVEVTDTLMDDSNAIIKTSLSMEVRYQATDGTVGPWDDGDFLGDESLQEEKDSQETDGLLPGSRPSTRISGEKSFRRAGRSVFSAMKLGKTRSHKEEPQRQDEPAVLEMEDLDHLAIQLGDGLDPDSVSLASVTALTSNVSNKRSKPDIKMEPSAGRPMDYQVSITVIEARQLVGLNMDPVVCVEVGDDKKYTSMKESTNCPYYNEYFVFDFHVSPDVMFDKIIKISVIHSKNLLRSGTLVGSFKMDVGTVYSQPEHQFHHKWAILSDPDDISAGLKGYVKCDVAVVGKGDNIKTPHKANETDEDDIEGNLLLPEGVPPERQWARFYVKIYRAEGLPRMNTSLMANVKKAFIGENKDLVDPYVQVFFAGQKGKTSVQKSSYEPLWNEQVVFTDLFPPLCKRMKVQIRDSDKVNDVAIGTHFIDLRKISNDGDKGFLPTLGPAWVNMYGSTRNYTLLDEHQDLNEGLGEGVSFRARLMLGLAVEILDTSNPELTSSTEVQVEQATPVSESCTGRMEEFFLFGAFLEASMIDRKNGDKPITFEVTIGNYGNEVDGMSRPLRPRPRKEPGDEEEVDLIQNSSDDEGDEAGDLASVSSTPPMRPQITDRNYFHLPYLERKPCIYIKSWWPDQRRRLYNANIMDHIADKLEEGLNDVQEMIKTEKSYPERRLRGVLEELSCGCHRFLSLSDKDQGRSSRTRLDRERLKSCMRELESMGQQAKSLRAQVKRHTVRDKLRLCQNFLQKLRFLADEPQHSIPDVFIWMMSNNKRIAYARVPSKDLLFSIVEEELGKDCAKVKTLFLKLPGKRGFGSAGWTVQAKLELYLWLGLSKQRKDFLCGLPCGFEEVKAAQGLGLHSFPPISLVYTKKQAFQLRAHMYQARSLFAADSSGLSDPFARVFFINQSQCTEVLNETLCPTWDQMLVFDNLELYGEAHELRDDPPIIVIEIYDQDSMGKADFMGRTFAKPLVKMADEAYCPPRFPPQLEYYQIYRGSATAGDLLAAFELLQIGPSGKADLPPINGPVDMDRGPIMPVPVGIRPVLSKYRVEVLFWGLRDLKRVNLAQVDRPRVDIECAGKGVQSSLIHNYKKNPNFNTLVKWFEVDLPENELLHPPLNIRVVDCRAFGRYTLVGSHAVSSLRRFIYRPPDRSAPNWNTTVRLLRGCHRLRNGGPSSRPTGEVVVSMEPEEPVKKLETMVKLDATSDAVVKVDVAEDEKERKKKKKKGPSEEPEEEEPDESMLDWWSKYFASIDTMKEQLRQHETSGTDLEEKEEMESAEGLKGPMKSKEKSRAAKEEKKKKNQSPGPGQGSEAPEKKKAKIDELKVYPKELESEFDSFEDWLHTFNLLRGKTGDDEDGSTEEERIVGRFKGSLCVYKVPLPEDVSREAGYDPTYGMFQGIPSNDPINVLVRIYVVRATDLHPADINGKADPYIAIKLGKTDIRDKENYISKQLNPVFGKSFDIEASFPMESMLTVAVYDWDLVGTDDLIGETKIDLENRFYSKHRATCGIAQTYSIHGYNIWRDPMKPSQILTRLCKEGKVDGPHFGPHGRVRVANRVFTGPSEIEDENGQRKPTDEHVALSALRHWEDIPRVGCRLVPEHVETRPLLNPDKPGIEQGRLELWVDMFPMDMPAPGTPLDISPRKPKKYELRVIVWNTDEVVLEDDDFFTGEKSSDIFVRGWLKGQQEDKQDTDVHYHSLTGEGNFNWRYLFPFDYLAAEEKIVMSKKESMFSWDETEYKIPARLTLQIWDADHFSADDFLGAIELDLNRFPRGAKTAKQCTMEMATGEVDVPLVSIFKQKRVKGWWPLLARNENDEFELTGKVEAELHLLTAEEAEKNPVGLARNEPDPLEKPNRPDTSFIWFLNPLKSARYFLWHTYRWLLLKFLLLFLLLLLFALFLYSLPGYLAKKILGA

In experiment [1], “myosin VI (from UniProt Q64331 1-1262) (natural protein)” had a PLA puncta fluorescence intensity per cell, % of rest, PMA 5 min of 133%; a PLA puncta fluorescence intensity per cell, % of rest, PMA 15 min of 149%; a PLA puncta fluorescence intensity per cell, % of rest, after 1-min stimulation of 173%.

“protein kinase C α (from UniProt P20444 1-672) (enzyme)” showed a PLA puncta fluorescence intensity per cell, % of rest, after 1-min stimulation in experiment [1] of 442%.

B1: calbindin-D28k (natural protein)
chain: MAESHLQSSLITASQFFEIWLHFDADGSGYLEGKELQNLIQELLQARKKAGLELSPEMKSFVDQYGQRDDGKIGIVELAHVLPTEENFLLLFRCQQLKSCEEFMKTWRKYDTDHSGFIETEELKNFLKDLLEKANKTVDDTKLAEYTDLMLKLFDSNNDGKLELTEMARLLPVQENFLLKFQGIKMCGKEFNKAFELYDQDGNGYIDENELDALLKDLCEKNKQELDINNITTYKKNIMALSDGGKLYRTDLALILSAGDN
In experiment [2], B1 yielded a PLA puncta fluorescence intensity per cell, % of rest, PMA 5 min of 175%; a PLA puncta fluorescence intensity per cell, % of rest, PMA 15 min of 161%; a PLA puncta fluorescence intensity per cell, % of rest, after 1-min stimulation of 560%.
